As a reminder, the stoichiometry N is a count of units in the complex or per binding partner. The Kd is the concentration at which binding is half-saturated.

Where two headings read alike, the source gives them in different places.

This is an account of results in article PMC9299544.

For experiment [1], the target named is wild-type mouse myosin-15 motor domain with 2 IQ motifs (MD-2IQ), heavy chain (mouse). The experiment in a line: SEC; heavy chain, ELC and RLC co-expressed in Sf9; FLAG M2 resin, MonoQ, then Superdex 200 in 10 mM Mops, 100 mM KCl, 0.1 mM EGTA, pH 7.0; single peak. (Size exclusion chromatography separates by hydrodynamic size, large species first.)
For experiment [2], the target named is chicken skeletal muscle actin (ADP F-actin) (chicken) (UniProt P68139). The experiment in a line: cryo-EM structure; Mg-ADP state: wild-type myosin-15 incubated with 5 mM ADP-Mg for 20 min, applied to 0.6 uM ADP F-actin on the grid; else as for the rigor samples.
For experiment [3] the target is unchanged. The experiment in a line: cryo-EM structure; rigor state: 6 uM myosin-15 treated with apyrase (10 U/ml), applied twice to 0.6 uM ADP F-actin on the grid; KMEI buffer with 0.01% NP-40 substitute; 25°C; helical reconstruction, symmetry expansion and focused classification.
Experiment [4] has as its target F-actin (UniProt P68133). To be noted: cited from earlier work.
Experiment [5] has as its target F-actin (UniProt P68133). To be noted: cited from earlier work. This is another data set of the same source.

With “bovine smooth muscle essential light chain (ELC; MYL6) (from UniProt P60661 1-151) (natural protein)”, the stoichiometry N in experiment [1] came out at 1.
With “chicken regulatory light chain (RLC; MYL12B) (natural protein)”, in experiment [1], the stoichiometry N was 1.
On to “wild-type mouse myosin-15 motor domain with 2 IQ motifs (MD-2IQ), as the myosin-15:ELC:RLC complex (from UniProt P60661 1-151)”, for which the stoichiometry N in experiment [2] and in experiment [3] was 1 in each case.
“myosin-15 motor domain (from UniProt Q9QZZ4)”: the Kd with F-actin [4] was 0.31 µM; with F-actin [5], 0.2 µM.
